Our source for the pIC50 Category (FACS) and pIC50 Category (Activity) values is patent publication US20220315554A1, “COMPOUNDS COMPRISING A […] LIGAND AND USE THEREOF” (priority 2019, published 2022).

Numbered stars: 1 amine (or outer) side, 2 acyl side, 3 side chain; on linkers, the order of the positions; unused ones are H or OH. Bridge positions count the residues as written; N and C are the ends. Ends that are not written are not given here. * marks the point of attachment. Ttds = 1,13-diamino-4,7,10-trioxatridecan-succinamic acid, NCCCOCCOCCOCCCNC(=O)CCC(=O)*; tMeBn(DOTA-AET) = Cys-Cys bridge (thioethers) carrying DOTA-AET; tMeBn(DOTA-PP) = Cys-Cys bridge (thioethers) carrying DOTA-PP; DOTA = O=C(O)CN1CCN(CC(=O)O)CCN(CC(=O)*)CCN(CC(=O)O)CC1; mXylylene = c1cc(C[*:1])cc(C[*:2])c1; tMeBn(LuDOTA-AET) = not defined here; 2Lut = Cys-Cys bridge (thioethers); 3Lut = Cys-Cys bridge (thioethers); Pentanesulfonyl = CCCCCS(=O)(=O)*; PentylNH‑urea = CCCCCNC(=O)*; Hexanoyl = CCCCCC(=O)* Bounds are passed on as bounds.

To fix the notation:
T1: Recombinant human FAP (R&D systems, #3715-SE) (human)
T1 sequence: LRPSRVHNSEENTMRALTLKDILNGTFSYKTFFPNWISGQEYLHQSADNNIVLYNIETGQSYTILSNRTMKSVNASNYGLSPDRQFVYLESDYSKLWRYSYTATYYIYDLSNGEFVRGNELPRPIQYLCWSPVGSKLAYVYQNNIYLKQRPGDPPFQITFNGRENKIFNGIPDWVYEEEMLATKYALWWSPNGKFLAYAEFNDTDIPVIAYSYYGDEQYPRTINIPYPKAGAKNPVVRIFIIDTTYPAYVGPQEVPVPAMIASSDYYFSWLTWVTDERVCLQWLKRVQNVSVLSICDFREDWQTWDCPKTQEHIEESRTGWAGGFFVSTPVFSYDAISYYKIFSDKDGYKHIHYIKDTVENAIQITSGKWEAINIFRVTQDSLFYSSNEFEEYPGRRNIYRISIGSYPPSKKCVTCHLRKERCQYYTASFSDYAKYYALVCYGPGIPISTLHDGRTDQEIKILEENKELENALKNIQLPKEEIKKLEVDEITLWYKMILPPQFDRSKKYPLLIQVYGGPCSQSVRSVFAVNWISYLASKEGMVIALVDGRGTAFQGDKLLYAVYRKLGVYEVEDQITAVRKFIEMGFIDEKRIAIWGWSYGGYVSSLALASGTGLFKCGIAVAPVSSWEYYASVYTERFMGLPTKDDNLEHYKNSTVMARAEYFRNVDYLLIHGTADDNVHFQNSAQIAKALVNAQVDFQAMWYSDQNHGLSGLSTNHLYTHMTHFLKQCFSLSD

B1: Hex-[Cys(3MeBn)-Pro-Pro-Thr-Glu-Phe-Cys]-Asp-NH2 (peptide)
peptide: Hexanoyl-CPPTEFCD-NH2
modifications: linker 1-7 via mXylylene
SMILES: CCCCCC(=O)N[C@H]1CSCc2cccc(c2)CSC[C@@H](C(=O)N[C@@H](CC(=O)O)C(N)=O)NC(=O)[C@H](Cc2ccccc2)NC(=O)[C@H](CCC(=O)O)NC(=O)[C@H]([C@@H](C)O)NC(=O)[C@@H]2CCCN2C(=O)[C@@H]2CCCN2C1=O
B2: Hex-[Cys(tMeBn(LuDOTA-AET))-Pro-Pro-Thr-Gln-Phe-Cys]-OH (peptide)
peptide: Hexanoyl-CPPTQFC-OH
modifications: linker 1-7 via tMeBn(LuDOTA-AET); reading uncertain; also: Lu-DOTA complex, printed as Hex-[Cys(tMeBn(LuDOTA-AET))-Pro-Pro-Thr-Gln-Phe-Cys]-OH
B3: Hex-[Cys(3MeBn)-Pro-Pro-Thr-Gln-Phe-Cys]-Asp-Ttds-Ape-NH-DOTA' (peptide)
peptide: Hexanoyl-CPPTQFCD
modifications: linker 1-7 via mXylylene; not fully specified (C-terminus); printed as Hex-[Cys(3MeBn)-Pro-Pro-Thr-Gln-Phe-Cys]-Asp-Ttds-Ape(DOTA)
B4: Ac-[Cys(3MeBn)-Pro-Pro-Thr-Glu-Phe-Cys]-Asp-His-Phe-Arg-Asp-NH2 (peptide)
peptide: Ac-CPPTEFCDHFRD-NH2
modifications: linker 1-7 via mXylylene
SMILES: CC(=O)N[C@H]1CSCc2cccc(c2)CSC[C@@H](C(=O)N[C@@H](CC(=O)O)C(=O)N[C@@H](Cc2c[nH]cn2)C(=O)N[C@@H](Cc2ccccc2)C(=O)N[C@@H](CCCNC(=N)N)C(=O)N[C@@H](CC(=O)O)C(N)=O)NC(=O)[C@H](Cc2ccccc2)NC(=O)[C@H](CCC(=O)O)NC(=O)[C@H]([C@@H](C)O)NC(=O)[C@@H]2CCCN2C(=O)[C@@H]2CCCN2C1=O
B5: Hex-[Cys(3MeBn)-Pro-Pro-Thr-Gln-Phe-Cys]-Asp-NH2 (peptide)
peptide: Hexanoyl-CPPTQFCD-NH2
modifications: linker 1-7 via mXylylene
SMILES: CCCCCC(=O)N[C@H]1CSCc2cccc(c2)CSC[C@@H](C(=O)N[C@@H](CC(=O)O)C(N)=O)NC(=O)[C@H](Cc2ccccc2)NC(=O)[C@H](CCC(N)=O)NC(=O)[C@H]([C@@H](C)O)NC(=O)[C@@H]2CCCN2C(=O)[C@@H]2CCCN2C1=O
B6: Hex-[Cys(3MeBn)-Pro-Pro-Thr-Gln-Phe-Cys]-Asp-Ape-NH-DOTA' (peptide)
peptide: Hexanoyl-CPPTQFCD
modifications: linker 1-7 via mXylylene; not fully specified (C-terminus); printed as Hex-[Cys(3MeBn)-Pro-Pro-Thr-Gln-Phe-Cys]-Asp-Ape(DOTA)
B7: Hex-[Cys(tMeBn(DOTA-AET))-Pro-Pro-Thr-Gln-Phe-Cys]-asp-NH2 (peptide)
peptide: CPPTQFCD
modifications: N-terminal Hex (hexanoyl); Cys1-Cys7 bridged by tMeBn(DOTA-AET) (thioethers); D-Asp8 (asp); C-terminal amide
B8: PentylNH-urea-[Cys(3MeBn)-Pro-Pro-Thr-Gln-Phe-Cys]-Asp-NH2 (peptide)
peptide: {PentylNH‑urea}-CPPTQFCD-NH2
modifications: linker 1-7 via mXylylene
SMILES: CCCCCNC(=O)N[C@H]1CSCc2cccc(c2)CSC[C@@H](C(=O)N[C@@H](CC(=O)O)C(N)=O)NC(=O)[C@H](Cc2ccccc2)NC(=O)[C@H](CCC(N)=O)NC(=O)[C@H]([C@@H](C)O)NC(=O)[C@@H]2CCCN2C(=O)[C@@H]2CCCN2C1=O
B9: Hex-[Cys(3MeBn)-Pro-Pro-Thr-Glu-Phe-Cys]-Asp-His-Phe-Arg-Asp-NH2 (peptide)
peptide: Hexanoyl-CPPTEFCDHFRD-NH2
modifications: linker 1-7 via mXylylene
SMILES: CCCCCC(=O)N[C@H]1CSCc2cccc(c2)CSC[C@@H](C(=O)N[C@@H](CC(=O)O)C(=O)N[C@@H](Cc2c[nH]cn2)C(=O)N[C@@H](Cc2ccccc2)C(=O)N[C@@H](CCCNC(=N)N)C(=O)N[C@@H](CC(=O)O)C(N)=O)NC(=O)[C@H](Cc2ccccc2)NC(=O)[C@H](CCC(=O)O)NC(=O)[C@H]([C@@H](C)O)NC(=O)[C@@H]2CCCN2C(=O)[C@@H]2CCCN2C1=O
B10: Pentyl-SO2-[Cys(3MeBn)-Pro-Pro-Thr-Gln-Phe-Cys]-Asp-NH2 (peptide)
peptide: Pentanesulfonyl-CPPTQFCD-NH2
modifications: linker 1-7 via mXylylene
SMILES: CCCCCS(=O)(=O)N[C@H]1CSCc2cccc(c2)CSC[C@@H](C(=O)N[C@@H](CC(=O)O)C(N)=O)NC(=O)[C@H](Cc2ccccc2)NC(=O)[C@H](CCC(N)=O)NC(=O)[C@H]([C@@H](C)O)NC(=O)[C@@H]2CCCN2C(=O)[C@@H]2CCCN2C1=O

The first assay has as its target human fibroblast activation protein (FAP) on FAP-expressing human WI-38 fibroblasts (human). In words: competition FACS, WI-38 cells, vs Cy5-labeled compound; A: pIC50 >8.0. The settings on record: remark: other sources report otherwise.
As to Hexanoyl-CPPTQFC-OH (linker 1-7 via tMeBn(EuDOTA-AET); also: Eu-DOTA complex) [Hex-[Cys(tMeBn(EuDOTA-AET))-Pro-Pro-Thr-Gln-Phe-Cys]-OH], the pIC50 Category (FACS) is > 8 pIC50.
Turning to B1, the pIC50 Category (FACS) is > 8 pIC50.
Hexanoyl-CPPTQFC-NH2 (linker 1-7 via tMeBn(InDOTA-AET); also: In-DOTA complex) [Hex-[Cys(tMeBn(InDOTA-AET))-Pro-Pro-Thr-Gln-Phe-Cys]-NH2]: the pIC50 Category (FACS) is > 8 pIC50.
Turning to Pentanesulfonyl-CPPTQFC-OH (linker 1-7 via tMeBn(DOTA-AET)) [Pentyl-SO2-[Cys(tMeBn(DOTA-AET))-Pro-Pro-Thr-Gln-Phe-Cys]-OH], the pIC50 Category (FACS) is > 8 pIC50.
On to B2, for which the pIC50 Category (FACS) is > 8 pIC50.
Still for that read-out and setting: to Hexanoyl-CPPTQFC-OH (linker 1-7 via tMeBn(InDOTA-AET); also: In-DOTA complex) [Hex-[Cys(tMeBn(InDOTA-AET))-Pro-Pro-Thr-Gln-Phe-Cys]-OH] belongs > 8 pIC50.
As to Hexanoyl-CPPTQFC-NH2 (linker 1-7 via tMeBn(DOTA-AET)) [Hex-[Cys(tMeBn(DOTA-AET))-Pro-Pro-Thr-Gln-Phe-Cys]-NH2], the pIC50 Category (FACS) was > 8 pIC50.
On the same count and under the same terms, to Hexanoyl-CPPTQFC-OH (linker 1-7 via tMeBn(DOTA-AET)) [Hex-[Cys(tMeBn(DOTA-AET))-Pro-Pro-Thr-Gln-Phe-Cys]-OH] belongs > 8 pIC50.

Another assay concerns the target T1, Recombinant human FAP (R&D systems, #3715-SE) (human).
Test: not given
Conditions: not given
Regarding Hexanoyl-CPPTQFCD-NH2 (linker 1-7 via tMeBn(EuDOTA-PP); also: Eu-DOTA complex) [Hex-[Cys(tMeBn(EuDOTA-PP))-Pro-Pro-Thr-Gln-Phe-Cys]-Asp-NH2], the pIC50 Category (Activity) was > 8 pIC50.
Same read-out and setting: to B3 belongs > 8 pIC50.
On the same count and under the same terms, under Hexanoyl-CPPTEFC-NH2 (linker 1-7 via tMeBn(DOTA-AET)) [Hex-[Cys(tMeBn(DOTA-AET))-Pro-Pro-Thr-Glu-Phe-Cys]-NH2] stands > 8 pIC50; under B4, > 8 pIC50; under Hexanoyl-CPPTQFCD-OH (linker 1-7 via tMeBn(DOTA-AET)) [Hex-[Cys(tMeBn(DOTA-AET))-Pro-Pro-Thr-Gln-Phe-Cys]-Asp-OH], > 8 pIC50.
Same read-out and setting: to B1 belongs > 8 pIC50; to {DOTA-Ttds}-LCPPTEFCDHFRD-NH2 (linker 2-8 via mXylylene) [DOTA-Ttds-Leu-[Cys(3MeBn)-Pro-Pro-Thr-Glu-Phe-Cys]-Asp-His-Phe-Arg-Asp-NH2], > 8 pIC50; to B5, > 8 pIC50.
Take B6: the pIC50 Category (Activity) is > 8 pIC50.
Consider Pentanesulfonyl-CPPTQFCD-NH2 (linker 1-7 via tMeBn(DOTA-PP)) [Pentyl-SO2-[Cys(tMeBn(DOTA-PP))-Pro-Pro-Thr-Gln-Phe-Cys]-Asp-NH2], for which the pIC50 Category (Activity) was > 8 pIC50.
On to Hexanoyl-CPPTQFCD-NH2 (linker 1-7 via 3Lut) [Hex-[Cys(3Lut)-Pro-Pro-Thr-Gln-Phe-Cys]-Asp-NH2], for which the pIC50 Category (Activity) was > 8 pIC50.
Regarding B7, the pIC50 Category (Activity) is > 8 pIC50.
On the same count and under the same terms, under Hexanoyl-CPPTQFCD-NH2 (linker 1-7 via tMeBn(LuDOTA-PP); also: Lu-DOTA complex) [Hex-[Cys(tMeBn(LuDOTA-PP))-Pro-Pro-Thr-Gln-Phe-Cys]-Asp-NH2] stands > 8 pIC50; under B8, > 8 pIC50; under Hexanoyl-CPPTQFCD-NH2 (linker 1-7 via tMeBn(InDOTA-PP); also: In-DOTA complex) [Hex-[Cys(tMeBn(InDOTA-PP))-Pro-Pro-Thr-Gln-Phe-Cys]-Asp-NH2], > 8 pIC50.
On the same count and under the same terms, to B9 belongs > 8 pIC50.
As for Hexanoyl-CPPTQFCD-NH2 (linker 1-7 via tMeBn(GaDOTA-PP)) [Hex-[Cys(tMeBn(GaDOTA-PP))-Pro-Pro-Thr-Gln-Phe-Cys]-Asp-NH2], the pIC50 Category (Activity) was > 8 pIC50.
On the same count and under the same terms, under Hexanoyl-CPPTQFCD-NH2 (linker 1-7 via 2Lut) [Hex-[Cys(2Lut)-Pro-Pro-Thr-Gln-Phe-Cys]-Asp-NH2] stands > 8 pIC50; under Hexanoyl-CPPTQFCD-NH2 (linker 1-7 via tMeBn(DOTA-AET)) [Hex-[Cys(tMeBn(DOTA-AET))-Pro-Pro-Thr-Gln-Phe-Cys]-Asp-NH2], > 8 pIC50; under B10, > 8 pIC50.
On the same count and under the same terms, under Hexanoyl-CPPTQFCS-OH (linker 1-7 via tMeBn(DOTA-AET)) [Hex-[Cys(tMeBn(DOTA-AET))-Pro-Pro-Thr-Gln-Phe-Cys]-Ser-OH] stands > 8 pIC50.
